Positions count from the first letter of the chain named.
B1: Binding nucleic acid molecule 1, 5'-biotin (ELAA) (ssDNA)
DNA: GGTATGTCTCCGCCACTGAAATCCGTGCCTAATCTCACCCCACGGAATTCATGGCAAAGCCGAGGTGTCTTGTATTC
modifications: NG7 (modified thymine, formula 1) at underlined T, i.e. T residues 3' of the first 23 nt
B2: Binding nucleic acid molecule 13 (ssDNA)
DNA: GCTGATACTCGGTATCCCTAATCTCACCCGATACCGAAAAAAAAAAAAAAAAAAAA
modifications: NG7 (modified thymine, formula 1) at all T 3' of the first 12 nt
B3: Control nucleic acid molecule (Song et al. 2020 aptamer) (ssDNA)
DNA: CAGCACCGACCTTGTGCTTTGGGAGTGCTGGTCCAAGGGCGTTAATGGACAAAAAAAAAAAAAAAAAAAAA
B4: Binding nucleic acid molecule 5 (ssDNA)
DNA: GGTTTAGCCCTCGACTCCAAATGTGCACTCTCCCGGTATCCCTAATCTCACCCGATACCGTTGATGTGCTGCCAATACAAAAAAAAAAAAAAAAAAAA
modifications: NG7 (modified thymine, formula 1) at underlined T, i.e. T residues 3' of the first 23 nt (underlining of some T differs between printings)
B5: Binding nucleic acid molecule 7 (ssDNA)
DNA: B4 DNA with A27T, C28G, T29A, C30T, T31A, C33T
modifications: NG7 (modified thymine, formula 1) at all T 3' of the first 23 nt
B6: Binding nucleic acid molecule 3 (ssDNA)
DNA: GGTATGTCTCCGCCACTGAAATCCCTGACCGCTGACCAAATCTCAGTGCAGATGCAAAGCCGAGGTGTCTTGTATTCAAAAAAAAAAAAAAAAAAAA
modifications: NG7 (modified thymine, formula 1) at all T 3' of the first 23 nt
B7: Binding nucleic acid molecule 2 (ssDNA)
DNA: GGTATGTCTCCGCCACTGAAATCTAATCTCACATTGTAAGCAAAGGAGAATAAGCAAAGCCGAGGTGTCTTGTATTCAAAAAAAAAAAAAAAAAAAA
modifications: NG7 (modified thymine, formula 1) at all T 3' of the first 23 nt
B8: Binding nucleic acid molecule 8 (ssDNA)
DNA: CCACTGAAATCCGTGCCTAATCTCACCCCACGGAATTCATGGAAAAAAAAAAAAAAAAAAAA
modifications: NG7 (modified thymine, formula 1) at all T 3' of the first 11 nt
B9: Binding nucleic acid molecule 4 (ssDNA)
DNA: GGTATGTCTCCGCCACTGAAATCTTGTCCCCTAATAGGTTCCGACTGACAAGTGCAAAGCCGAGGTGTCTTGTATTCAAAAAAAAAAAAAAAAAAAA
modifications: NG7 (modified thymine, formula 1) at all T 3' of the first 23 nt
B10: Binding nucleic acid molecule 6 (ssDNA)
DNA: GGTTTAGCCCTCGACTCCAAATGACATGAGCCAGGTGCATCTTGAACGTCATAGATACCGTTGATGTGCTGCCAATACAAAAAAAAAAAAAAAAAAAA
modifications: NG7 (modified thymine, formula 1) at all T 3' of the first 23 nt
B11: Binding nucleic acid molecule 9 (ssDNA)
DNA: TCCGCCACTGAAATCTAATCTCACATTGTAAGCAAAGGAGAATAAAAAAAAAAAAAAAAAAAAAA
modifications: NG7 (modified thymine, formula 1) at all T 3' of the first 15 nt
B12: Binding nucleic acid molecule 12 (ssDNA)
DNA: TGACATGAGCCAGGTGCATCTTGAACGTCATAGATACCGTTGATGTGCTGAAAAAAAAAAAAAAAAAAAA
modifications: NG7 (modified thymine, formula 1) at all T 3' of the first 14 nt
B13: Binding nucleic acid molecule 11 (ssDNA)
DNA: TGTGCACTCTCCCGGTATCCCTAATCTCACCCGATACCAAAAAAAAAAAAAAAAAAAA
modifications: NG7 (modified thymine, formula 1) at all T 3' of the first 15 nt
B14: Binding nucleic acid molecule 1 (ssDNA)
DNA: GGTATGTCTCCGCCACTGAAATCCGTGCCTAATCTCACCCCACGGAATTCATGGCAAAGCCGAGGTGTCTTGTATTCAAAAAAAAAAAAAAAAAAAA
modifications: NG7 (modified thymine, formula 1) at underlined T, i.e. T residues 3' of the first 23 nt (underlining of some T differs between printings); 3' poly(dA)20 tail unmodified

What was measured:
[1] = molecular target: T1, SARS-CoV-2 spike glycoprotein RBD domain (SARS-CoV-2, UniProt P0DTC2 SEQ:1-223); test: ELONA
[2] = molecular target: T1, SARS-CoV-2 spike glycoprotein RBD domain; test: SPR
[3] = molecular target: T1, SARS-CoV-2 spike glycoprotein RBD domain; test: SPR; SB1T + 0.1 mM dextran, 25 C
[4] = molecular target: T1, SARS-CoV-2 spike glycoprotein RBD domain; test: SPR; SB1T, no dextran, 25 C
[5] = molecular target: BSA (bovine serum albumin) (UniProt P02769 P02769:25-607); test: SPR; signal approximately 0; conditions: tags: Sigma A7906
[6] = molecular target: SARS-CoV-2 spike glycoprotein S1+S2 domain (ECD) (SARS-CoV-2, UniProt P0DTC2 SEQ:2-1201); test: SPR; 400 nM protein, SB1T, 25 C; conditions: tags: His; Sino Biological 40589-V08B1
[7] = molecular target: SARS-CoV-2 spike glycoprotein S1 domain (SARS-CoV-2, UniProt P0DTC2 SEQ:2-673); test: SPR; 400 nM protein, SB1T, 25 C; conditions: tags: Elabscience PKSR030481

BSA (bovine serum albumin), sequence (P02769 25-607, one chain of several): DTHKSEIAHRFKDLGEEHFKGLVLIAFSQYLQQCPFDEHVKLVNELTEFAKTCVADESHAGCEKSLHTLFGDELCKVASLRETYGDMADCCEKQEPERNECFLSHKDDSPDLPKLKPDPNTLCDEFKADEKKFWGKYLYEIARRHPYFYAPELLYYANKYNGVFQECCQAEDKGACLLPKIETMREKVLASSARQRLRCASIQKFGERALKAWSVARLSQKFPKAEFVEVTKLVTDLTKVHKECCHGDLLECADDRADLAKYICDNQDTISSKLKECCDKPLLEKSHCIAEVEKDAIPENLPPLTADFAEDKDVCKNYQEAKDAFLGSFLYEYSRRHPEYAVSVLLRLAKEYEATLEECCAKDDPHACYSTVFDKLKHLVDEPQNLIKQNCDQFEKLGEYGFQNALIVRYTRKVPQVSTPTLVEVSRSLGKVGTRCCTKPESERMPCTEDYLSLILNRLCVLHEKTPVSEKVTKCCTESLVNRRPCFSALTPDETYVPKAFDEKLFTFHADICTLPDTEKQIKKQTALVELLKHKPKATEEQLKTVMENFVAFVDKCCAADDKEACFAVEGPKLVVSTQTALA

Row | Binder | Kd [2] | Kd [3] | Kd [4] | binding result [5] | also measured
1 | B1 | – | – | – | – | binding result [1]: binds
2 | B2 | < 0.1 nM | 12 nM | – | – | –
3 | B3 | – | – | 65000 nM | – | –
4 | B4 | < 0.1 nM | 2.8 nM | – | no binding | –
5 | B5 | < 0.1 nM | 5.5 nM | – | no binding | –
6 | B6 | – | – | – | no binding | binding result [6]: binds; binding result [7]: binds
7 | B7 | – | 3.5 nM | 1.7 nM | no binding | –
8 | B8 | – | 5.3 nM | 2 nM | – | –
9 | CCACTGAAATCCGTGCCTAATCTCACCCCACGGAATTCATGG (ssDNA, NG7 (modified thymine, formula 1) at all T 3' of the first 11 nt) [Binding nucleic acid molecule 8, 5'-biotin (ELAA)] | – | – | – | – | binding result [1]: binds
10 | B9 | – | – | – | no binding | binding result [6]: binds; binding result [7]: binds
11 | B10 | – | 6.7 nM | 3.1 nM | no binding | –
12 | B11 | – | 20.8 nM | 2.1 nM | – | –
13 | B12 | – | 7.4 nM | 2.4 nM | – | –
14 | B13 | < 0.1 nM | 16.6 nM | – | – | –
15 | B14 | 1.2 nM | 3.2 nM | – | no binding | –
